Experimental data from the supplement of paper PMC10065799, “High-throughput profiling of sequence recognition by tyrosine kinases and SH2 domains using bacterial peptide display” (eLife, 2023).

Molecular target: FGFR3 (UniProt P22607)
Assay: phosphorylation enrichment, bacterial display (enrichment ratio); higher = better substrate or ligand; peptides without Tyr show the background
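Also: 11-residue human phosphosite peptides and single-mutation variants displayed on the E. coli surface, counted by deep sequencing, each peptide's frequency after selection divided by its frequency in the unselected input library; frequency after pTyr selection over input frequency; kinase dosed for 20-30% of maximal phosphorylation in three min.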

Chain of FGFR3 (P22607 whole entry, looked up): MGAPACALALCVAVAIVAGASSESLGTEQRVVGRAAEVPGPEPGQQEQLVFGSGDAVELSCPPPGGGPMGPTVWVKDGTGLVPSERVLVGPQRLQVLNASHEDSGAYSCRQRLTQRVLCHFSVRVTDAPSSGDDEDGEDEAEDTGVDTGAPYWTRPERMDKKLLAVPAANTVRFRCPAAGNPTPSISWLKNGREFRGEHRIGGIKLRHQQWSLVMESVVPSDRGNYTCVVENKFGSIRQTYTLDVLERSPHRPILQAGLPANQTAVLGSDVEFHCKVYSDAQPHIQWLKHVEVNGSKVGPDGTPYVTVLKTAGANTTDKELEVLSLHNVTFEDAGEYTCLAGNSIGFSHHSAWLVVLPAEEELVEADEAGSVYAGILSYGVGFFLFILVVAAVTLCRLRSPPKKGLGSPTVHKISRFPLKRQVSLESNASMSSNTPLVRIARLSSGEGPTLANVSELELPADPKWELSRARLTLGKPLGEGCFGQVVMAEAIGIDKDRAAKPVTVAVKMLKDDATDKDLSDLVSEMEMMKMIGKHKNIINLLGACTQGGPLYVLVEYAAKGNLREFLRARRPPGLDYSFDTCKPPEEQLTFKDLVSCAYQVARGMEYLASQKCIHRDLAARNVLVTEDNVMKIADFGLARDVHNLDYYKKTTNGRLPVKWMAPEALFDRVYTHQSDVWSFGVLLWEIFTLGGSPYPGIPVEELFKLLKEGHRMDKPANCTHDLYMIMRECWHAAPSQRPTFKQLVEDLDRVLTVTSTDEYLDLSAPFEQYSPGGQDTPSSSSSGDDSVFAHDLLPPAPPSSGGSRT

Going from CDTKLYTSAPN [DNTTIP2_Y427] to MSSHHYDYKKY [ZNF445_Y428], the phosphorylation enrichment falls from 0.764 to 0.46.

Compared with FSAPNCCFRCG [PPP2CA_Y265_Y265C_YF], AGQEEYSAMRD [HRAS_Y64] is lower in phosphorylation enrichment: 0.663 for the first, 0.591 for the second.

First: ENAGFYFRISA
Second: QNTGNYFDLFG [PTPN11_Y62_D61N_YF]
The phosphorylation enrichment of the first is lower: 0.844 for the first, 15.3 for the second.

Going from SRDPFYEMLTA [CYTH1_Y382_A386T] to PEADKYHLTYA [FGG_Y300_R301H], the phosphorylation enrichment falls from 4.25 to 0.771.

First: LIGRGYDDPEV [HSPA9_Y128_R127G]
Second: SEKISYVFMKR [SSX7_Y48_L43S_YF]
The phosphorylation enrichment of the first is higher: 0.894 for the first, 0.75 for the second.

Compared with TKFVAYIESQG [KDM4B_Y34_N29T_YF], GIFSGYDDAWD [POLR1C_Y36_N32I_YF] is higher in phosphorylation enrichment: 0.685 for the first, 0.7 for the second.

First: QEIATCRRLLE [KRT14_Y415_Y415C]
Second: RQQQDYWLMDV [ANPEP_Y600_I603M]
The phosphorylation enrichment of the first is lower: 0.508 for the first, 13.1 for the second.

First: TSEASYYKSLN [NGEF_Y288]
Second: PEIIAYQPYGK [PRKCG_Y529]
The phosphorylation enrichment of the first is lower: 0.707 for the first, 0.723 for the second.

Going from PLLLSYFLIKW [NUP160_Y773_YF] to SVVVCYEPPEV [TP53_Y220_P219C], the phosphorylation enrichment falls from 1.73 to 0.78.

Compared with RMSQRYRDVLQ [CYP1A2_Y72_G73R], KDHLDYKFQPR [SOX9_Y172_P170L_YF] is lower in phosphorylation enrichment: 0.549 for the first, 0.531 for the second.

Going from EAVKNYTDKRG [PBRM1_Y672] to EADRKYEEVAH [TPM3_Y163_R168H], the phosphorylation enrichment rises from 0.459 to 0.633.

Compared with SKEPYYVRCIK [MYO1D_Y586], RRKRAYVEIEF [MAK16_Y282_Q277R_YF] is higher in phosphorylation enrichment: 0.669 for the first, 0.871 for the second.

Compared with FEGRSYSACTT [MMP9_Y241], EPSLVYMVTKI [CPS1_Y768_D767V] is higher in phosphorylation enrichment: 0.709 for the first, 0.741 for the second.

First: DFPIGYPSYLA [TBCK_Y153]
Second: ANARMYGVLPW [PLP1_Y207_D203N]
The phosphorylation enrichment of the first is higher: 0.55 for the first, 0.506 for the second.

Compared with LVMFIYAIFWM [SCN1A_Y1684_G1688W], KLQKYYRKNPD [EHHADH_Y683_Q685K] is lower in phosphorylation enrichment: 0.626 for the first, 0.332 for the second.

Going from PKGWNYELPAT [PROM1_Y34_A31G] to YSGIYYKPESL [L2HGDH_Y103_H98Y], the phosphorylation enrichment rises from 0.592 to 9.82.

Work on QAEEWYFGKMG [YES1_Y159] yielded a phosphorylation enrichment of 1.07.

System: Fer (mouse)
Assay: as above

First: CDTKLYTSAPN [DNTTIP2_Y427]
Second: MSSHHYDYKKY [ZNF445_Y428]
The phosphorylation enrichment of the first is higher: 0.694 for the first, 0.408 for the second.

Going from FSAPNCCFRCG [PPP2CA_Y265_Y265C_YF] to AGQEEYSAMRD [HRAS_Y64], the phosphorylation enrichment falls from 0.48 to 0.429.

Compared with ENAGFYFRISA, QNTGNYFDLFG [PTPN11_Y62_D61N_YF] is higher in phosphorylation enrichment: 0.674 for the first, 0.925 for the second.

Going from SRDPFYEMLTA [CYTH1_Y382_A386T] to PEADKYHLTYA [FGG_Y300_R301H], the phosphorylation enrichment falls from 11 to 0.282.

Going from LIGRGYDDPEV [HSPA9_Y128_R127G] to SEKISYVFMKR [SSX7_Y48_L43S_YF], the phosphorylation enrichment falls from 0.669 to 0.458.

Going from TKFVAYIESQG [KDM4B_Y34_N29T_YF] to GIFSGYDDAWD [POLR1C_Y36_N32I_YF], the phosphorylation enrichment rises from 0.403 to 0.477.

Compared with QEIATCRRLLE [KRT14_Y415_Y415C], RQQQDYWLMDV [ANPEP_Y600_I603M] is higher in phosphorylation enrichment: 0.337 for the first, 1.03 for the second.

First: TSEASYYKSLN [NGEF_Y288]
Second: PEIIAYQPYGK [PRKCG_Y529]
The phosphorylation enrichment of the first is lower: 0.464 for the first, 0.537 for the second.

First: PLLLSYFLIKW [NUP160_Y773_YF]
Second: SVVVCYEPPEV [TP53_Y220_P219C]
The phosphorylation enrichment of the first is lower: 0.37 for the first, 0.678 for the second.

Going from RMSQRYRDVLQ [CYP1A2_Y72_G73R] to KDHLDYKFQPR [SOX9_Y172_P170L_YF], the phosphorylation enrichment falls from 0.396 to 0.392.

Going from EAVKNYTDKRG [PBRM1_Y672] to EADRKYEEVAH [TPM3_Y163_R168H], the phosphorylation enrichment rises from 0.41 to 0.521.

Compared with SKEPYYVRCIK [MYO1D_Y586], RRKRAYVEIEF [MAK16_Y282_Q277R_YF] is higher in phosphorylation enrichment: 0.501 for the first, 0.551 for the second.

Compared with FEGRSYSACTT [MMP9_Y241], EPSLVYMVTKI [CPS1_Y768_D767V] is higher in phosphorylation enrichment: 0.516 for the first, 1.7 for the second.

First: DFPIGYPSYLA [TBCK_Y153]
Second: ANARMYGVLPW [PLP1_Y207_D203N]
The phosphorylation enrichment of the first is higher: 0.582 for the first, 0.474 for the second.

First: LVMFIYAIFWM [SCN1A_Y1684_G1688W]
Second: KLQKYYRKNPD [EHHADH_Y683_Q685K]
The phosphorylation enrichment of the first is higher: 0.531 for the first, 0.283 for the second.

Going from PKGWNYELPAT [PROM1_Y34_A31G] to YSGIYYKPESL [L2HGDH_Y103_H98Y], the phosphorylation enrichment rises from 0.433 to 9.95.

Sequence QAEEWYFGKMG [YES1_Y159] has a phosphorylation enrichment of 0.603.

Molecular target: Fes (UniProt P07332)
Sequence (P07332 whole entry, looked up): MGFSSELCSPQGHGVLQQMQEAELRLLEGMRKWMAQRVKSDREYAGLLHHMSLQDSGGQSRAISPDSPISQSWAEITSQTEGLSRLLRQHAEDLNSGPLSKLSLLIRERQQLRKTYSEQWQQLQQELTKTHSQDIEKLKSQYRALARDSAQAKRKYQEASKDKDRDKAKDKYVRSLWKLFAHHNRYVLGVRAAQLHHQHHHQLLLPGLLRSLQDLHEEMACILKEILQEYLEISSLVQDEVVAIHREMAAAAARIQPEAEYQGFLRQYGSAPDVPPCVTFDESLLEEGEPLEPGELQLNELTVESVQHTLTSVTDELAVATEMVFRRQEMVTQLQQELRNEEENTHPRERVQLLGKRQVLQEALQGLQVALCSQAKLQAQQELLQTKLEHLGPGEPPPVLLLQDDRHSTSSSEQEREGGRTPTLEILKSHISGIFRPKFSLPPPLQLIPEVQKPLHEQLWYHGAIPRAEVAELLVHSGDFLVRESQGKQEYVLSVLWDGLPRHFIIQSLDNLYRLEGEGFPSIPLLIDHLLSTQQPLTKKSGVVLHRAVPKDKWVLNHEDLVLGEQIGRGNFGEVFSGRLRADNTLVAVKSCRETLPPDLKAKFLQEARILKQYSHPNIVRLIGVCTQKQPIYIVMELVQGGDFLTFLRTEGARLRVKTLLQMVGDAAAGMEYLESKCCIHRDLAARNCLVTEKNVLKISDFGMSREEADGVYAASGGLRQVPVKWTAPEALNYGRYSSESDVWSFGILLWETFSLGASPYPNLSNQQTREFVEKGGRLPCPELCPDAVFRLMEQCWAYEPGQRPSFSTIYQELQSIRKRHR
Assay: as above

Going from CDTKLYTSAPN [DNTTIP2_Y427] to MSSHHYDYKKY [ZNF445_Y428], the phosphorylation enrichment falls from 1.11 to 0.513.

Compared with FSAPNCCFRCG [PPP2CA_Y265_Y265C_YF], AGQEEYSAMRD [HRAS_Y64] is lower in phosphorylation enrichment: 0.974 for the first, 0.931 for the second.

Going from ENAGFYFRISA to QNTGNYFDLFG [PTPN11_Y62_D61N_YF], the phosphorylation enrichment rises from 1.42 to 1.44.

First: SRDPFYEMLTA [CYTH1_Y382_A386T]
Second: PEADKYHLTYA [FGG_Y300_R301H]
The phosphorylation enrichment of the first is higher: 1.07 for the first, 0.985 for the second.

First: LIGRGYDDPEV [HSPA9_Y128_R127G]
Second: SEKISYVFMKR [SSX7_Y48_L43S_YF]
The phosphorylation enrichment of the first is higher: 1.88 for the first, 1.32 for the second.

First: TKFVAYIESQG [KDM4B_Y34_N29T_YF]
Second: GIFSGYDDAWD [POLR1C_Y36_N32I_YF]
The phosphorylation enrichment of the first is lower: 1.02 for the first, 1.14 for the second.

Going from QEIATCRRLLE [KRT14_Y415_Y415C] to RQQQDYWLMDV [ANPEP_Y600_I603M], the phosphorylation enrichment rises from 0.928 to 1.01.

First: TSEASYYKSLN [NGEF_Y288]
Second: PEIIAYQPYGK [PRKCG_Y529]
The phosphorylation enrichment of the first is lower: 0.789 for the first, 1.08 for the second.

First: PLLLSYFLIKW [NUP160_Y773_YF]
Second: SVVVCYEPPEV [TP53_Y220_P219C]
The phosphorylation enrichment of the first is higher: 1.8 for the first, 1.19 for the second.

Compared with RMSQRYRDVLQ [CYP1A2_Y72_G73R], KDHLDYKFQPR [SOX9_Y172_P170L_YF] is lower in phosphorylation enrichment: 1.08 for the first, 1.02 for the second.

Going from EAVKNYTDKRG [PBRM1_Y672] to EADRKYEEVAH [TPM3_Y163_R168H], the phosphorylation enrichment rises from 0.653 to 1.04.

Going from SKEPYYVRCIK [MYO1D_Y586] to RRKRAYVEIEF [MAK16_Y282_Q277R_YF], the phosphorylation enrichment falls from 0.966 to 0.828.

First: FEGRSYSACTT [MMP9_Y241]
Second: EPSLVYMVTKI [CPS1_Y768_D767V]
The phosphorylation enrichment of the first is lower: 1.13 for the first, 1.16 for the second.

Going from DFPIGYPSYLA [TBCK_Y153] to ANARMYGVLPW [PLP1_Y207_D203N], the phosphorylation enrichment falls from 0.902 to 0.783.

Compared with LVMFIYAIFWM [SCN1A_Y1684_G1688W], KLQKYYRKNPD [EHHADH_Y683_Q685K] is lower in phosphorylation enrichment: 1.05 for the first, 0.501 for the second.

First: PKGWNYELPAT [PROM1_Y34_A31G]
Second: YSGIYYKPESL [L2HGDH_Y103_H98Y]
The phosphorylation enrichment of the first is lower: 0.867 for the first, 0.968 for the second.

With QAEEWYFGKMG [YES1_Y159] the phosphorylation enrichment was 1.13.

Molecular target: Fyn (UniProt P06241)
Sequence (P06241 whole entry, looked up): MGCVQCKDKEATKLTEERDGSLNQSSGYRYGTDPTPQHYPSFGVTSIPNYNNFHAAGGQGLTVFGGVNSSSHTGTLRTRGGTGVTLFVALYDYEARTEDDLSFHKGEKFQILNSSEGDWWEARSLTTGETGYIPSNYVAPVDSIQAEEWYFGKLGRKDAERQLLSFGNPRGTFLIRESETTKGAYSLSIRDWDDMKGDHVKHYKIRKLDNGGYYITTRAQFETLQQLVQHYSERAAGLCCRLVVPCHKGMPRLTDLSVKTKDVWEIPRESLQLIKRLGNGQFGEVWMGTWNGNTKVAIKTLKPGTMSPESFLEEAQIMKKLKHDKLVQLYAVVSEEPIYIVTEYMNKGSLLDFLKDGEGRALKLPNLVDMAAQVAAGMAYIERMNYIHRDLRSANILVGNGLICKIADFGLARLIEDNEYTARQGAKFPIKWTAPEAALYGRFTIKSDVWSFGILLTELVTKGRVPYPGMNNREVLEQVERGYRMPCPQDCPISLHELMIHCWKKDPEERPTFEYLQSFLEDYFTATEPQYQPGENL
Assay: as above

Going from CDTKLYTSAPN [DNTTIP2_Y427] to MSSHHYDYKKY [ZNF445_Y428], the phosphorylation enrichment falls from 0.606 to 0.415.

Going from FSAPNCCFRCG [PPP2CA_Y265_Y265C_YF] to AGQEEYSAMRD [HRAS_Y64], the phosphorylation enrichment rises from 0.458 to 0.462.

Going from ENAGFYFRISA to QNTGNYFDLFG [PTPN11_Y62_D61N_YF], the phosphorylation enrichment rises from 0.44 to 0.541.

First: SRDPFYEMLTA [CYTH1_Y382_A386T]
Second: PEADKYHLTYA [FGG_Y300_R301H]
The phosphorylation enrichment of the first is higher: 2.38 for the first, 0.608 for the second.

Going from LIGRGYDDPEV [HSPA9_Y128_R127G] to SEKISYVFMKR [SSX7_Y48_L43S_YF], the phosphorylation enrichment falls from 0.975 to 0.436.

Compared with TKFVAYIESQG [KDM4B_Y34_N29T_YF], GIFSGYDDAWD [POLR1C_Y36_N32I_YF] is higher in phosphorylation enrichment: 0.497 for the first, 0.551 for the second.

Compared with QEIATCRRLLE [KRT14_Y415_Y415C], RQQQDYWLMDV [ANPEP_Y600_I603M] is higher in phosphorylation enrichment: 0.352 for the first, 0.537 for the second.

Going from TSEASYYKSLN [NGEF_Y288] to PEIIAYQPYGK [PRKCG_Y529], the phosphorylation enrichment rises from 0.464 to 0.68.

Compared with PLLLSYFLIKW [NUP160_Y773_YF], SVVVCYEPPEV [TP53_Y220_P219C] is higher in phosphorylation enrichment: 0.561 for the first, 0.573 for the second.

First: RMSQRYRDVLQ [CYP1A2_Y72_G73R]
Second: KDHLDYKFQPR [SOX9_Y172_P170L_YF]
The phosphorylation enrichment of the first is higher: 0.593 for the first, 0.431 for the second.

Going from EAVKNYTDKRG [PBRM1_Y672] to EADRKYEEVAH [TPM3_Y163_R168H], the phosphorylation enrichment rises from 0.421 to 0.506.

Compared with SKEPYYVRCIK [MYO1D_Y586], RRKRAYVEIEF [MAK16_Y282_Q277R_YF] is higher in phosphorylation enrichment: 0.417 for the first, 0.58 for the second.

Going from FEGRSYSACTT [MMP9_Y241] to EPSLVYMVTKI [CPS1_Y768_D767V], the phosphorylation enrichment rises from 0.541 to 0.808.

Going from DFPIGYPSYLA [TBCK_Y153] to ANARMYGVLPW [PLP1_Y207_D203N], the phosphorylation enrichment rises from 0.438 to 4.99.

Going from LVMFIYAIFWM [SCN1A_Y1684_G1688W] to KLQKYYRKNPD [EHHADH_Y683_Q685K], the phosphorylation enrichment falls from 0.563 to 0.359.

First: PKGWNYELPAT [PROM1_Y34_A31G]
Second: YSGIYYKPESL [L2HGDH_Y103_H98Y]
The phosphorylation enrichment of the first is lower: 0.531 for the first, 9.17 for the second.

With QAEEWYFGKMG [YES1_Y159] the phosphorylation enrichment was 0.773.
